B1: DNA repair protein complementing XP-C cells (Homo sapiens), Q01831-1 (parent)
chain: MARKRAAGGEPRGRELRSQKSKAKSKARREEEEEDAFEDEKPPKKSLLSKVSQGKRKRGCSHPGGSADGPAKKKVAKVTVKSENLKVIKDEALSDGDDLRDFPSDLKKAHHLKRGATMNEDSNEEEEESENDWEEVEELSEPVLGDVRESTAFSRSLLPVKPVEIEIETPEQAKTRERSEKIKLEFETYLRRAMKRFNKGVHEDTHKVHLLCLLANGFYRNNICSQPDLHAIGLSIIPARFTRVLPRDVDTYYLSNLVKWFIGTFTVNAELSASEQDNLQTTLERRFAIYSARDDEELVHIFLLILRALQLLTRLVLSLQPIPLKSATAKGKKPSKERLTADPGGSSETSSQVLENHTKPKTSKGTKQEETFAKGTCRPSAKGKRNKGGRKKRSKPSSSEEDEGPGDKQEKATQRRPHGRERRVASRVSYKEESGSDEAGSGSDFELSSGEASDPSDEDSEPGPPKQRKAPAPQRTKAGSKSASRTHRGSHRKDPSLPAASSSSSSSKRGKKMCSDGEKAEKRSIAGIDQWLEVFCEQEEKWVCVDCVHGVVGQPLTCYKYATKPMTYVVGIDSDGWVRDVTQRYDPVWMTVTRKCRVDAEWWAETLRPYQSPFMDREKKEDLEFQAKHMDQPLPTAIGLYKNHPLYALKRHLLKYEAIYPETAAILGYCRGEAVYSRDCVHTLHSRDTWLKKARVVRLGEVPYKMVKGFSNRARKARLAEPQLREENDLGLFGYWQTEEYQPPVAVDGKVPRNEFGNVYLFLPSMMPIGCVQLNLPNLHRVARKLDIDCVQAITGFDFHGGYSHPVTDGYIVCEEFKDVLLTAWENEQAVIERKEKEKKEKRALGNWKLLAKGLLIRERLKRRYGPKSEAAAPHTDAGGGLSSDEEEGTSSQAEAARILAASWPQNREDEEKQKLKGGPKKTKREKKAAASHLFPFEQL

Variants of: B1
Settings: with tf2h1_human GTF2H1, P32780
tf2h1_human GTF2H1, P32780, sequence (P32780 whole entry): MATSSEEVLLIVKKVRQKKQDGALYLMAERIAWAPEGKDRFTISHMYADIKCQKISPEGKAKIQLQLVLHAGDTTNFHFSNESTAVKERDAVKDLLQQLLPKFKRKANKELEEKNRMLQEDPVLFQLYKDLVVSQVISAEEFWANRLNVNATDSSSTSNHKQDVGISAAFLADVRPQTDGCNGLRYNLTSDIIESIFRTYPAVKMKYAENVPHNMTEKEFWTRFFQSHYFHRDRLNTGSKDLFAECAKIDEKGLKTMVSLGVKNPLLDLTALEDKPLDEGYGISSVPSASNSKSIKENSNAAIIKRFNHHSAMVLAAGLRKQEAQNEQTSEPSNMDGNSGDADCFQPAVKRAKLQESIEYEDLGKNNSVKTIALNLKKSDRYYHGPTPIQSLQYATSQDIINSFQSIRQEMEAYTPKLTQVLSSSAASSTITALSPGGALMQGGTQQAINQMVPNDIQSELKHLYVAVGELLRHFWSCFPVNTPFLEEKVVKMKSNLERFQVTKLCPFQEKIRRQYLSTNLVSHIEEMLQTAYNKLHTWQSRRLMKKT

effect of a mutation on the interaction | Variant
decreasing interaction strength | E128A
decreasing interaction strength | W133F
disrupting interaction strength | W133A
decreasing interaction strength | V136A
decreasing interaction strength | L139A

Variants of: B1
Settings: with ercc3_human ERCC3, P19447
ercc3_human ERCC3, P19447, sequence (P19447 whole entry): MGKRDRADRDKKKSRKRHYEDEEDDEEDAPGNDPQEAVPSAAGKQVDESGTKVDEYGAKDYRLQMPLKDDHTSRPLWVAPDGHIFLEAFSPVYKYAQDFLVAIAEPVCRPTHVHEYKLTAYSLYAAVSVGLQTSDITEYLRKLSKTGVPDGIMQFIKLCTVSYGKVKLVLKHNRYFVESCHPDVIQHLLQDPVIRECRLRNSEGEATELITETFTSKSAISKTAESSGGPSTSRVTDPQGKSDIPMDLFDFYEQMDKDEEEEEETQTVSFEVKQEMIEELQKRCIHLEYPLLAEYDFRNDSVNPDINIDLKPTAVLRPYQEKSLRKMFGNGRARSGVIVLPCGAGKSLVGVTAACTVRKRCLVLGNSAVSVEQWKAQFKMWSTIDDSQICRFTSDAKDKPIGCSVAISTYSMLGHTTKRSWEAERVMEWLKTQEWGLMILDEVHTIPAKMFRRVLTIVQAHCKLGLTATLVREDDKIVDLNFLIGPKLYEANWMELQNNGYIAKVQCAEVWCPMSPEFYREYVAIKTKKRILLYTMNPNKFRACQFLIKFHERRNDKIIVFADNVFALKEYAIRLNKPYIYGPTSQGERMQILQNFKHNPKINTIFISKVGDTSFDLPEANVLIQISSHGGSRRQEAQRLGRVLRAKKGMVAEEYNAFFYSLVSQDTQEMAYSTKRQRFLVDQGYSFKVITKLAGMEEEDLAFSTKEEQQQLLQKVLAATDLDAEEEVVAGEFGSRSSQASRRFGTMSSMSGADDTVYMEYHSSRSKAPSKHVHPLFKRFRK

effect of a mutation on the interaction | Variant
decreasing interaction strength | W133A
decreasing interaction strength | V136A
decreasing interaction strength | W133A;V136A

Source: IntAct's records for PubMed 26278177
